Assay results taken from paper PMC3915059 (Archives of biochemistry and biophysics, 2013).

Assays:
[1] = biological target: T1, Δ^1-pyrroline-5-carboxylate dehydrogenase (MmP5CDH, ALDH4A1) (Mus musculus, UniProt Q8CHT0); assay: X-ray crystal structure; type: biochemical
T1 sequence (Q8CHT0 21-562): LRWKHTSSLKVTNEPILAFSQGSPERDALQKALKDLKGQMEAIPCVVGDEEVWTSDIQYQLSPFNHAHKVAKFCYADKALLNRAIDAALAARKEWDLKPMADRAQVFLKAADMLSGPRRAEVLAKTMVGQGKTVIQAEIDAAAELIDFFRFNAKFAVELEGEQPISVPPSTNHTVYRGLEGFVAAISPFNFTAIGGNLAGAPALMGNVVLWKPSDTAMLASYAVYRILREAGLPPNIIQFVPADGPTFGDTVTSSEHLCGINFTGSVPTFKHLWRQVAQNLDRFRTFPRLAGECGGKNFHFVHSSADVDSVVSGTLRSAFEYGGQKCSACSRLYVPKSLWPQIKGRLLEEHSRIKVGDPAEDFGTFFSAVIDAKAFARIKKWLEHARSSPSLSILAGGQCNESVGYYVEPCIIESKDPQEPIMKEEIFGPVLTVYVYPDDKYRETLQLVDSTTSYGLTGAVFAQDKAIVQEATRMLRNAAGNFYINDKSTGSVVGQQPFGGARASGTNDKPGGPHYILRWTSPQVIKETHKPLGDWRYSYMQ

[2] = biological target: T1, Δ^1-pyrroline-5-carboxylate dehydrogenase (MmP5CDH, ALDH4A1); assay: steady-state inhibition kinetics, NADH production at […] nm, competitive model; type: biochemical
[3] = substrate: O=CCCC(=O)O; assay: purified protein; details: NAD+ aldehyde substrate site; 20.0 °C

## O=CC(=O)O [compound 4, glyoxylate]
[1]
  Ki: 0.27 mM

## N[C@@H](CCC(=O)O)C(=O)O [L-glutamate]
[2]
  Ki: 12 mM

B1: Δ^1-pyrroline-5-carboxylate dehydrogenase (MmP5CDH, ALDH4A1) (Mus musculus) (protein)
chain: LRWKHTSSLKVTNEPILAFSQGSPERDALQKALKDLKGQMEAIPCVVGDEEVWTSDIQYQLSPFNHAHKVAKFCYADKALLNRAIDAALAARKEWDLKPMADRAQVFLKAADMLSGPRRAEVLAKTMVGQGKTVIQAEIDAAAELIDFFRFNAKFAVELEGEQPISVPPSTNHTVYRGLEGFVAAISPFNFTAIGGNLAGAPALMGNVVLWKPSDTAMLASYAVYRILREAGLPPNIIQFVPADGPTFGDTVTSSEHLCGINFTGSVPTFKHLWRQVAQNLDRFRTFPRLAGECGGKNFHFVHSSADVDSVVSGTLRSAFEYGGQKCSACSRLYVPKSLWPQIKGRLLEEHSRIKVGDPAEDFGTFFSAVIDAKAFARIKKWLEHARSSPSLSILAGGQCNESVGYYVEPCIIESKDPQEPIMKEEIFGPVLTVYVYPDDKYRETLQLVDSTTSYGLTGAVFAQDKAIVQEATRMLRNAAGNFYINDKSTGSVVGQQPFGGARASGTNDKPGGPHYILRWTSPQVIKETHKPLGDWRYSYMQ
[3]
  Km: 26 ± 2 µM
  kcat: 0.16 s⁻¹
  kcat/Km: 6200 M⁻¹ s⁻¹
